Key:
Format in all cases: cell-based
[1] = tested on: mouse IL-10 mRNA in primary LN cells; test: Validation: mouse IL-10 mRNA by real-time PCR in LN cells of GA-immunized SJL/J mice (Example IV); conditions: for IL-10 mRNA Fold Change: normalized to GAPDH
Description: (§1) Three experiments were conducted using one batch of GA (Mylan GMA). The primary LN cells were stimulated by incubation with 6 concentrations (0.3 to 20 μg/mL) of the GA for 6 hours at 37° C. Total RNA was isolated from LN cells stimulated with GA or controls. cDNA was synthesized from the RNA and the mRNA levels of seven mouse cytokines, IL-2, IL-4, IL-5, IL-10, IL-13, interferon (IFN)-γ and tumor necrosis factor (TNF)-α, were quantitatively measured by a real-time PCR method.
(§2) Female SJL/J mice at 8-9 weeks of age were immunized by injection into four footpads using a 1 mL syringe with a 27-G, ½-inch needle. Each mouse received a total injection volume of 0.1 mL of GMA emulsified in CFA (about 10 μL into each of the front footpads and 40 μL into each of the hind footpads). Animals were immunized on Day 0. After injection, animals were placed back in their cages and housed ≤6 animals per cage.
(§3) Immunized animals were sacrificed by cervical dislocation on Day 10 following immunization. […] After centrifugation at about 200×g for 10 minutes at 4° C., the cell pellet was re-suspended in 40 mL of DCCM-1 medium for cell counting. A Trypan blue exclusion method was used to determine the cell density of viable cells in the suspension. After cell counting, the LN cells were suspended in enriched DCCM-1 medium at density of 7.5×10^6 cells/mL. LN cells (0.12 mL) were plated into each well of 96-well tissue culture plates.
(§4) Dilutions of GA (Mylan GMA) were prepared using enriched DCCM-1 medium as the diluent. GA dilutions (0.12 mL) were added in the assigned wells of 96-well tissue culture plates. The same volume of LN cells (0.12 mL) isolated from immunized animals was added to the assigned wells. A positive control and a negative control were always performed in the same assay by treating LN cells with 2.5 μg/mL ConA and 10 μg/mL MBP, respectively. The LN cells with mock stimulation protocols (enriched DCCM-1 medium) were used to monitor the background mRNA level of a cytokine. The plates were incubated at 37° C. in a humidified 5% CO2 incubator for 6 hr.
(§5) At the end of incubation time, culture medium from stimulated cells was removed by aspiration and the cells were lysed using Qiagen or Promega lysis buffer. The lysate was transferred to an RNeasy Mini column (Qiagen) or wells of the SV 96 Binding Plate (Promega) for RNA isolation and cDNA synthesis. All tested samples were run in triplicate.
(§6) The SV 96 Total RNA Isolation System (Promega; Cat. No. Z3505) was used for total RNA isolation. Assay procedures were carried out according to each manufacturer's protocol. RNA samples were stored at −70° C. until use. […] The assay procedure was carried out according to the manufacturer's protocol.
(§7) The plate was centrifuged at 2000 rpm for 2 minutes at 4° C. to spin down the contents and eliminate air bubbles. Samples were prepared and run in a 96-well plate using a Life Technologies Real-Time PCR system (previously Applied Biosystems; Model No. 7500) according to the manufacturer's recommendation. The mix for the reference gene was prepared in the same way using the reference gene primer.
(§8) A relative quantitation method was used to analyze changes in mIL-2, mIL-4, mIL-5, mIL-10, mIL-13, mIFN-γ and TNF-α expression in GA treated samples relative to the untreated control (Enriched DCCM-1 treated) samples using the following program:
(§9) Levels of mouse cytokine amplicons were normalized to an internal probe level (GAPDH) from the same samples. The following equations were used to calculate the relative increase in response to GA stimulation compared to the control sample (Enriched DCCM1 sample): […]

[2] = tested on: mouse TNF-α mRNA in primary LN cells; test: Validation: mouse TNF-α mRNA by real-time PCR in LN cells of GA-immunized SJL/J mice (Example IV); conditions: for TNF-α mRNA Fold Change: normalized to GAPDH
Description: as §1, §2, §3, §4, §5, §6, §7, §8, §9

[3] = tested on: mouse IL-5 mRNA in primary LN cells; test: Mouse IL-5 mRNA in LN cells of immunized SJL/J mice stimulated with Copaxone and GMA lots, normalized to Actβ or GAPDH (Example V)
Description: A real-time polymerase chain reaction method was used to measure the expression of cytokine mRNA in GA-stimulated LN cells from GA-immunized SJL/J mice. Normalization of expression with two different housekeeping genes, GAPDH and β-actin, was tested.
Each group consisted of six female SJL/J mice immunized by injection in all four footpads with a total dose of 250 μg of one lot of GA, or mannitol and no GA. Three Copaxone batches and three GMA batches were used to immunize the mice. CFA was included in both GA and mannitol immunizations. Ten days following immunization, LN cell samples isolated from the immunized mice were each stimulated with a concentration of a Copaxone lot and a GMA lot. A positive control of 2.5 μg/mL ConA treated LN cells and a negative control of 10 μg/mL MBP treated cells were included in each group.
In the initial run, a lack of reproducibility was observed when cytokine mRNA levels were normalized to GAPDH mRNA levels. Therefore, the Q-PCR analysis was repeated on the samples, measuring levels of IL-2, IL-4, IL-5, and IL-13, using both GAPDH and β-actin as reference gene.
The RNA isolation and analysis procedures were similar to those described in Example IV. The expression levels of mouse IL-2, IL-4, IL-5 and IL-13 mRNA observed are summarized below in Tables 29 to 36. As shown by the data in Tables 30, 32, 34 and 36, a lack of reproducibility in the findings again was observed when cytokine mRNA levels were normalized to GAPDH mRNA for all cytokines except IL-13.

[4] = SJL/J, MBP 10 μg/mL, all PCR runs

Q: With “Concanavalin A [ConA, reference compound]” as the molecule, how does the “IL-10 mRNA Fold Change” value ([1]; Experiment 1, 2.5 μg/mL) read?
A: Its value is 1.2 fold.

Q: And the “IL-10 mRNA Fold Change” value ([1]; Experiment 2, 2.5 μg/mL)?
A: The value was 0.5 fold.

Q: And the “IL-10 mRNA Fold Change” value ([1]; Experiment 3, 2.5 μg/mL)?
A: Its value is 1.6 fold.

Q: And the “TNF-α mRNA Fold Change” value ([2]; Experiment 1, 2.5 μg/mL)?
A: Its value is 1.9 fold.

Q: What about the “TNF-α mRNA Fold Change” value ([2]; Experiment 2, 2.5 μg/mL) of the same molecule?
A: The value was 0.8 fold.

Q: And the “TNF-α mRNA Fold Change” value ([2]; Experiment 3, 2.5 μg/mL)?
A: Its value is 1.6 fold.

Q: What about the “IL-5 mRNA Fold Change” value ([3]; Group 3 (mice immunized with GA-M2 Mylan GMA), 2.5 μg/mL, normalized to Actβ) of the same molecule?
A: The value was 19.1 fold.

Q: And the “IL-5 mRNA Fold Change” value ([3]; Group 4 (mice immunized with GA-C2 Copaxone), 2.5 μg/mL, normalized to Actβ)?
A: The value was 27.8 fold.

Q: What about the “IL-5 mRNA Fold Change” value ([3]; Group ID 3, 2.5 μg/mL, normalized to GAPDH) of the same molecule?
A: The value was 21.1 fold.

Q: And the “IL-5 mRNA Fold Change” value ([3]; Group ID 4, 2.5 μg/mL, normalized to GAPDH)?
A: Its value is 59.4 fold.

B1: MBP: myelin basic protein, a negative control (protein, UniProt P02686 1-304, looked up)
Myelin basic protein: MGNHAGKRELNAEKASTNSETNRGESEKKRNLGELSRTTSEDNEVFGEADANQNNGTSSQDTAVTDSKRTADPKNAWQDAHPADPGSRPHLIRLFSRDAPGREDNTFKDRPSESDELQTIQEDSAATSESLDVMASQKRPSQRHGSKYLATASTMDHARHGFLPRHRDTGILDSIGRFFGGDRGAPKRGSGKDSHHPARTAHYGSLPQKSHGRTQDENPVVHFFKNIVTPRTPPPSQGKGRGLSLSRFSWGAEGQRPGFGYGGRASDYKSAHKGFKGVDAQGTLSKIFKLGGRDSRSGSPMARR
Q: What does the source list for B1?
A: IL-10 mRNA Fold Change ([1]; Experiment 1, 10 μg/mL): 1.1 fold; IL-10 mRNA Fold Change ([1]; Experiment 2, 10 μg/mL): 0.7 fold; IL-10 mRNA Fold Change ([1]; Experiment 3, 10 μg/mL): 1.0 fold; IL-10 mRNA expression level in response to MBP treatment [1, 4]: ≤ 2 fold; TNF-α mRNA Fold Change ([2]; Experiment 1, 10 μg/mL): 1.0 fold; TNF-α mRNA Fold Change ([2]; Experiment 2, 10 μg/mL): 1.1 fold; TNF-α mRNA Fold Change ([2]; Experiment 3, 10 μg/mL): 1.1 fold; TNF-α mRNA expression level in response to MBP treatment [2, 4]: ≤ 2 fold; IL-5 mRNA Fold Change ([3]; Group 3 (mice immunized with GA-M2 Mylan GMA), 10 μg/mL, normalized to Actβ): 0.6 fold; IL-5 mRNA Fold Change ([3]; Group 4 (mice immunized with GA-C2 Copaxone), 10 μg/mL, normalized to Actβ): 1.1 fold; IL-5 mRNA Fold Change ([3]; Group ID 3, 10 μg/mL, normalized to GAPDH): 0.6 fold; IL-5 mRNA Fold Change ([3]; Group ID 4, 10 μg/mL, normalized to GAPDH): 2.3 fold
